The Km is the substrate concentration at which the rate is half of its maximum. As usually defined, the kcat is the maximal rate divided by the concentration of active sites.

For one protein, Km and kcat results are on record in publication PMC6785131.

Substrate in the data set: N[C@@H](CS)C(=O)O
The data set can be described thus: purified protein. It counts as biochemical, Salmonella enterica. The settings on record: 2 mM ATP, 2 mM PPi, 10 mM MgCl2, 30 mM KCl, 100 mM HEPES pH 7.5, 37 °C, 25 nM enzyme, 50 μM-2 mM Cys.

B1: CysRS^chr (Salmonella enterica subsp. enterica serovar Typhimurium str. LT2) (protein)
chain: MLKIFNTLTRQKEEFKPIHAGEVGMYVCGITVYDLCHIGHGRTFVAFDVVARYLRFLGYKLKYVRNITDIDDKIIKRANENGESFVALVDRMIAEMHQDFDALNILRPDSEPRATHHIQEIIELTRTLIEKGHAYVADNGDVMFDVPTDPTYGQLSRQDLEQLQAGARVDVVDVKRNPMDFVLWKMSKEGEPSWPSPWGEGRPGWHIECSAMNCKQLGNHFDIHGGGSDLMFPHHENEIAQSTCAHDGEYVNYWMHSGMVMVDREKMSKSLGNFFTVRDVLKYYDAETVRYFLMSGHYRSQLNYSEENLKQARASLERLYTALRGTDKSAAPAGGEAFEARFVEAMNDDFNTPEAYSVLFDMAREVNRLKGEDMTAANAMASHLRKISGVLGLLEQEPDVFLQSGAQADDGEVAEIEALIQQRLDARKAKDWAAADAARDRLAEMGIILEDGPQGTTWRRK
notes: tag removal not mentioned
On to B1, for which the Km came to 14 ± 3 µM and the catalytic constant (kcat) came out at 1.1 ± 0.2 s⁻¹.
